From the supplement of paper PMC10724198
± gives the standard deviation of the averaged measurements.

Test system: Saccharomyces cerevisiae
Test: protein stability index of tFT-peptide fusion (C-terminal peptide) (PSI (0-1 scale)); higher = more stable (slower turnover)
Settings: genetic background: wild type; temperature: 30 C
Protocol: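 MPS profiling in S. cerevisiae of the tFT-X12 degron library: putative degron peptides plus stable controls, 12 aa, fused to the C-terminus of a sfGFP-mCherry timer. Cells are FACS-sorted into 8 mCherry/sfGFP bins and deep-sequenced. PSI runs from 0 (unstable) to 1 (stable). Backgrounds are wild type, das1Δ and doa10Δ at 30 °C, and wild type, das1Δ, cdc34-1 and cdc53-1 at 37 °C; 2-3 technical replicates each.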
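Also: PSI is a weighted mean of sequencing reads over stability bins, variants kept only with over 10 reads, mCherry proximal and sfGFP distal, peptide attached via GGGS linker.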

Sequence	protein stability index
SFFFLILFLFRD	0.299 ± 0.03
SFLACFVLAFFC	0.281 ± 0.017
SFPPLPPLPLPP	0.5917 ± 0.0043
SFTRYIFFLMFF	0.325 ± 0.017
SGPCSPRNLRRL	0.647 ± 0.03
SGPTIRRRLFVH	0.17 ± 0.043
SLIDPLGNLFNS	0.678 ± 0.014
SLIFLLVLILSL	0.347 ± 0.036
SLLFLVLFFPLV	0.43 ± 0.03
SLPCCKVVFCVI	0.355 ± 0.036
SLVIRLNIRLIL	0.325 ± 0.018
SPCSNFLECLSF	0.641 ± 0.017
SPGFVLLAVLVI	0.214 ± 0.025
SPGGALVFFVLV	0.431 ± 0.027
SPRSIALLHLFS	0.213 ± 0.031
SPSRAGQHLYYP	0.662 ± 0.011
SPTRTCTAIRTP	0.676 ± 0.027
SRFFSSSFYRLC	0.198 ± 0.036
SRGGVFYVRIHS	0.279 ± 0.029
SRLLGVKVSLVC	0.384 ± 0.031
SRVSEFVIPLGR	0.6473 ± 0.0059
SSAFFFLLFSLA	0.266 ± 0.037
SSGIGLFVWVYG	0.268 ± 0.035
SSLLLLCCLLVG	0.263 ± 0.03
SSVCVLVSCVLG	0.382 ± 0.022
SVGWGFWARFIG	0.253 ± 0.017

Sequence	protein stability index
SVLALLWVGCWL	0.265 ± 0.029
SVQICGFWLILG	0.333 ± 0.011
SVRGGSFLVHLC	0.168 ± 0.015
SVVVLHVHVRPP	0.582 ± 0.024
SWCLLVWIGGVF	0.264 ± 0.03
SWGRGADRWRRA	0.195 ± 0.016
SYWNSSPKCGNW	0.681 ± 0.018
TCRLIQLTVTLH	0.253 ± 0.018
TCVVCSCVLQCV	0.324 ± 0.028
TLCHLTLICVRE	0.21 ± 0.018
TLVFPRFLFLVV	0.363 ± 0.028
TNHRVRHWILRV	0.301 ± 0.019
TPLLPPSPPPSR	0.277 ± 0.017
TRPHPLRRVFIF	0.23 ± 0.038
TRSLLFANRCIV	0.304 ± 0.025
TVCSWSALSRFM	0.627 ± 0.015
TVILVLFPSPFL	0.484 ± 0.01
VAFFSVFYWLEC	0.29 ± 0.034
VARRRQQWMRGS	0.516 ± 0.025
VCAFCLFFVPLP	0.413 ± 0.022
VCFWCLYVMFSL	0.363 ± 0.021
VCIPLLVIRFLV	0.0599 ± 0.014
VCLFSVCLWFVS	0.141 ± 0.015
VCLLVSVCLLWL	0.192 ± 0.025
VCLVFLFQFVLI	0.41 ± 0.0094
VCMVLCRWRGLG	0.234 ± 0.038

Sequence	protein stability index
VCRCFPVCLFSF	0.341 ± 0.029
VCVRLVHCLVLV	0.174 ± 0.017
VFCCHSSRFVFA	0.501 ± 0.028
VFCFCRFHFFCA	0.453 ± 0.02
VFFFVSFFAFSS	0.179 ± 0.04
VFFLSFIFRFFL	0.454 ± 0.0048
VFFPCRLLPLLF	0.167 ± 0.014
VFFRVLVAGCRQ	0.468 ± 0.0052
VFGCHHLEVSVC	0.241 ± 0.024
VFGVWVVVGCVG	0.143 ± 0.013
VFRECSFFLVCC	0.252 ± 0.032
VFRHFYTFLALC	0.0988 ± 0.017
VFTGYSAFLLLC	0.0748 ± 0.014
VGASLVVIAIGV	0.387 ± 0.012
VGKGAGVRDGSR	0.645 ± 0.011
VGLLFGWVWSLW	0.545 ± 0.0096
VGLWFLCSLAFS	0.346 ± 0.023
VGYSLFTFLFCA	0.335 ± 0.017
VIQKKKKNKITS	0.238 ± 0.013
VIVIQGFVFVLG	0.248 ± 0.035
VLFSVWFFLVLV	0.103 ± 0.035
VLVLLVCVAALV	0.163 ± 0.025
VLVRVIYLLVSG	0.234 ± 0.029
VLVWLRLRVGLR	0.213 ± 0.021
VLYCRSCFLRVS	0.161 ± 0.0061
VMIFYVLGRVWD	0.314 ± 0.033

Same assay, conditions: genetic background: wild type; temperature: 37 C

Sequence	protein stability index
SFFFLILFLFRD	0.466 ± 0.04
SFLACFVLAFFC	0.411 ± 0.022
SFPPLPPLPLPP	0.6445 ± 0.0054
SFTRYIFFLMFF	0.456 ± 0.0069
SGPCSPRNLRRL	0.719 ± 0.02
SGPTIRRRLFVH	0.347 ± 0.019
SLIDPLGNLFNS	0.72 ± 0.018
SLIFLLVLILSL	0.483 ± 0.046
SLLFLVLFFPLV	0.506 ± 0.0075
SLPCCKVVFCVI	0.515 ± 0.015
SLVIRLNIRLIL	0.361 ± 0.019
SPCSNFLECLSF	0.733 ± 0.0071
SPGFVLLAVLVI	0.323 ± 0.04
SPGGALVFFVLV	0.606 ± 0.017
SPRSIALLHLFS	0.327 ± 0.024
SPSRAGQHLYYP	0.6953 ± 0.0059
SPTRTCTAIRTP	0.671 ± 0.0068
SRFFSSSFYRLC	0.485 ± 0.042
SRGGVFYVRIHS	0.4917 ± 0.0011
SRLLGVKVSLVC	0.5364 ± 0.0038
SRVSEFVIPLGR	0.71 ± 0.016
SSAFFFLLFSLA	0.446 ± 0.0051
SSGIGLFVWVYG	0.5023 ± 0.0012
SSLLLLCCLLVG	0.403 ± 0.014
SSVCVLVSCVLG	0.5117 ± 0.00052
SVGWGFWARFIG	0.434 ± 0.018

Sequence	protein stability index
SVLALLWVGCWL	0.452 ± 0.028
SVQICGFWLILG	0.53992 ± 0.00031
SVRGGSFLVHLC	0.337 ± 0.015
SVVVLHVHVRPP	0.6287 ± 0.0031
SWCLLVWIGGVF	0.432 ± 0.017
SWGRGADRWRRA	0.4725 ± 0.0013
SYWNSSPKCGNW	0.746 ± 0.011
TCRLIQLTVTLH	0.4071 ± 0.0036
TCVVCSCVLQCV	0.4641 ± 0.0042
TLCHLTLICVRE	0.336 ± 0.012
TLVFPRFLFLVV	0.432 ± 0.0083
TNHRVRHWILRV	0.517 ± 0.0083
TPLLPPSPPPSR	0.4348 ± 0.0042
TRPHPLRRVFIF	0.433 ± 0.041
TRSLLFANRCIV	0.503 ± 0.009
TVCSWSALSRFM	0.705 ± 0.0097
TVILVLFPSPFL	0.597 ± 0.017
VAFFSVFYWLEC	0.454 ± 0.018
VARRRQQWMRGS	0.5449 ± 0.004
VCAFCLFFVPLP	0.593 ± 0.012
VCFWCLYVMFSL	0.471 ± 0.022
VCIPLLVIRFLV	0.0485 ± 0.00051
VCLFSVCLWFVS	0.227 ± 0.013
VCLLVSVCLLWL	0.309 ± 0.016
VCLVFLFQFVLI	0.491 ± 0.01
VCMVLCRWRGLG	0.443 ± 0.026

Sequence	protein stability index
VCRCFPVCLFSF	0.519 ± 0.02
VCVRLVHCLVLV	0.283 ± 0.014
VFCCHSSRFVFA	0.623 ± 0.019
VFCFCRFHFFCA	0.563 ± 0.018
VFFFVSFFAFSS	0.3544 ± 0.0014
VFFLSFIFRFFL	0.55 ± 0.087
VFFPCRLLPLLF	0.286 ± 0.01
VFFRVLVAGCRQ	0.568 ± 0.028
VFGCHHLEVSVC	0.34 ± 0.012
VFGVWVVVGCVG	0.197 ± 0.013
VFRECSFFLVCC	0.315 ± 0.016
VFRHFYTFLALC	0.132 ± 0.018
VFTGYSAFLLLC	0.0721 ± 0.0049
VGASLVVIAIGV	0.5181 ± 0.0048
VGKGAGVRDGSR	0.713 ± 0.016
VGLLFGWVWSLW	0.674 ± 0.015
VGLWFLCSLAFS	0.495 ± 0.007
VGYSLFTFLFCA	0.51 ± 0.027
VIQKKKKNKITS	0.408 ± 0.016
VIVIQGFVFVLG	0.421 ± 0.0092
VLFSVWFFLVLV	0.127 ± 0.04
VLVLLVCVAALV	0.244 ± 0.014
VLVRVIYLLVSG	0.404 ± 0.017
VLVWLRLRVGLR	0.3468 ± 0.0019
VLYCRSCFLRVS	0.362 ± 0.023
VMIFYVLGRVWD	0.581 ± 0.082
